Results on 9 molecules are retold here after US20210032299A1 (Eli Lilly, published 2021).

Changes are numbered by the printed parent chain. Starred links: 1 amine or outer side, 2 acyl side, 3 side chain; linkers in the order of their positions; H or OH if unused. Non-standard residues stand in square brackets, D forms with d. Groups on a side chain read outwards from the residue. No end group written: not given here. *: point of attachment. C20 diacid = O=C(O)CCCCCCCCCCCCCCCCCCC(=O)*; γGlu = O=C(O)[C@H](CCC(=O)[*:2])N[*:1]; 4Pal = N[C@@H](Cc1ccncc1)C(=O)O; αMeL = CC(C)C[C@](C)(N)C(=O)O; Orn = NCCC[C@H](N)C(=O)O; AEEA = NCCOCCOCC(=O)O; Aib = CC(C)(N)C(=O)O

B1: Example 80 (peptide)
peptide: Y[Aib]EGTFISDYSI[αMeL]LD[Orn]K([AEEA-AEEA-γGlu-C20 diacid])HQ[Aib]DFVE[4Pal]LLETGPSSGAPPPS-NH2
modifications: N-terminus assumed
SMILES: CC[C@H](C)[C@H](NC(=O)[C@H](Cc1ccccc1)NC(=O)[C@@H](NC(=O)CNC(=O)[C@H](CCC(=O)O)NC(=O)C(C)(C)NC(=O)[C@@H](N)Cc1ccc(O)cc1)[C@@H](C)O)C(=O)N[C@@H](CO)C(=O)N[C@@H](CC(=O)O)C(=O)N[C@@H](Cc1ccc(O)cc1)C(=O)N[C@@H](CO)C(=O)N[C@H](C(=O)N[C@@](C)(CC(C)C)C(=O)N[C@@H](CC(C)C)C(=O)N[C@@H](CC(=O)O)C(=O)N[C@@H](CCCN)C(=O)N[C@@H](CCCCNC(=O)COCCOCCNC(=O)COCCOCCNC(=O)CC[C@H](NC(=O)CCCCCCCCCCCCCCCCCCC(=O)O)C(=O)O)C(=O)N[C@@H](Cc1c[nH]cn1)C(=O)N[C@@H](CCC(N)=O)C(=O)NC(C)(C)C(=O)N[C@@H](CC(=O)O)C(=O)N[C@@H](Cc1ccccc1)C(=O)N[C@H](C(=O)N[C@@H](CCC(=O)O)C(=O)N[C@@H](Cc1ccncc1)C(=O)N[C@@H](CC(C)C)C(=O)N[C@@H](CC(C)C)C(=O)N[C@@H](CCC(=O)O)C(=O)N[C@H](C(=O)NCC(=O)N1CCC[C@H]1C(=O)N[C@@H](CO)C(=O)N[C@@H](CO)C(=O)NCC(=O)N[C@@H](C)C(=O)N1CCC[C@H]1C(=O)N1CCC[C@H]1C(=O)N1CCC[C@H]1C(=O)N[C@@H](CO)C(N)=O)[C@@H](C)O)C(C)C)[C@@H](C)CC
B2: Example 74 (peptide)
peptide: YXEGTXISDYSIXLDKKHQXDFVEXLLEGGPSSGAPPPS
modifications: Aib2; Iva6; αMeL13; K17((2-[2-(2-Amino-ethoxy)-ethoxy]-acetyl)2-(γ-Glu)-CO-(CH2)18-CO2H); Aib20; 4-Pal25; C-terminal amide
B3: Example 77 (peptide)
peptide: B2 peptide with K16X, G29T
modifications: Aib2; Iva6; αMeL13; Orn16; K17((2-[2-(2-Amino-ethoxy)-ethoxy]-acetyl)2-(γ-Glu)-CO-(CH2)18-CO2H); Aib20; 4-Pal25; C-terminal amide
B4: Example 76 (peptide)
peptide: B2 peptide with K16X
modifications: Aib2; Iva6; αMeL13; Orn16; K17((2-[2-(2-Amino-ethoxy)-ethoxy]-acetyl)2-(γ-Glu)-CO-(CH2)18-CO2H); Aib20; 4-Pal25; C-terminal amide
B5: Example 75 (peptide)
peptide: B2 peptide with G29T
modifications: Aib2; Iva6; αMeL13; K17((2-[2-(2-Amino-ethoxy)-ethoxy]-acetyl)2-(γ-Glu)-CO-(CH2)18-CO2H); Aib20; 4-Pal25; C-terminal amide
B6: Example 73 (peptide)
peptide: Y[Aib]EGTLISDYSI[αMeL]LDKK([AEEA-AEEA-γGlu-C20 diacid])HQ[Aib]EFVEYLLEGGPSSGAPPPS-NH2
modifications: N-terminus assumed
SMILES: CC[C@H](C)[C@H](NC(=O)[C@H](CC(C)C)NC(=O)[C@@H](NC(=O)CNC(=O)[C@H](CCC(=O)O)NC(=O)C(C)(C)NC(=O)[C@@H](N)Cc1ccc(O)cc1)[C@@H](C)O)C(=O)N[C@@H](CO)C(=O)N[C@@H](CC(=O)O)C(=O)N[C@@H](Cc1ccc(O)cc1)C(=O)N[C@@H](CO)C(=O)N[C@H](C(=O)N[C@@](C)(CC(C)C)C(=O)N[C@@H](CC(C)C)C(=O)N[C@@H](CC(=O)O)C(=O)N[C@@H](CCCCN)C(=O)N[C@@H](CCCCNC(=O)COCCOCCNC(=O)COCCOCCNC(=O)CC[C@H](NC(=O)CCCCCCCCCCCCCCCCCCC(=O)O)C(=O)O)C(=O)N[C@@H](Cc1c[nH]cn1)C(=O)N[C@@H](CCC(N)=O)C(=O)NC(C)(C)C(=O)N[C@@H](CCC(=O)O)C(=O)N[C@@H](Cc1ccccc1)C(=O)N[C@H](C(=O)N[C@@H](CCC(=O)O)C(=O)N[C@@H](Cc1ccc(O)cc1)C(=O)N[C@@H](CC(C)C)C(=O)N[C@@H](CC(C)C)C(=O)N[C@@H](CCC(=O)O)C(=O)NCC(=O)NCC(=O)N1CCC[C@H]1C(=O)N[C@@H](CO)C(=O)N[C@@H](CO)C(=O)NCC(=O)N[C@@H](C)C(=O)N1CCC[C@H]1C(=O)N1CCC[C@H]1C(=O)N1CCC[C@H]1C(=O)N[C@@H](CO)C(N)=O)C(C)C)[C@@H](C)CC
B7: Example 72 (peptide)
peptide: Y[Aib]EGTLISDYSI[αMeL]LDKK([AEEA-AEEA-γGlu-C20 diacid])HQ[Aib]EFVEYLLETGPSSGAPPPS-NH2
modifications: N-terminus assumed
SMILES: CC[C@H](C)[C@H](NC(=O)[C@H](CC(C)C)NC(=O)[C@@H](NC(=O)CNC(=O)[C@H](CCC(=O)O)NC(=O)C(C)(C)NC(=O)[C@@H](N)Cc1ccc(O)cc1)[C@@H](C)O)C(=O)N[C@@H](CO)C(=O)N[C@@H](CC(=O)O)C(=O)N[C@@H](Cc1ccc(O)cc1)C(=O)N[C@@H](CO)C(=O)N[C@H](C(=O)N[C@@](C)(CC(C)C)C(=O)N[C@@H](CC(C)C)C(=O)N[C@@H](CC(=O)O)C(=O)N[C@@H](CCCCN)C(=O)N[C@@H](CCCCNC(=O)COCCOCCNC(=O)COCCOCCNC(=O)CC[C@H](NC(=O)CCCCCCCCCCCCCCCCCCC(=O)O)C(=O)O)C(=O)N[C@@H](Cc1c[nH]cn1)C(=O)N[C@@H](CCC(N)=O)C(=O)NC(C)(C)C(=O)N[C@@H](CCC(=O)O)C(=O)N[C@@H](Cc1ccccc1)C(=O)N[C@H](C(=O)N[C@@H](CCC(=O)O)C(=O)N[C@@H](Cc1ccc(O)cc1)C(=O)N[C@@H](CC(C)C)C(=O)N[C@@H](CC(C)C)C(=O)N[C@@H](CCC(=O)O)C(=O)N[C@H](C(=O)NCC(=O)N1CCC[C@H]1C(=O)N[C@@H](CO)C(=O)N[C@@H](CO)C(=O)NCC(=O)N[C@@H](C)C(=O)N1CCC[C@H]1C(=O)N1CCC[C@H]1C(=O)N1CCC[C@H]1C(=O)N[C@@H](CO)C(N)=O)[C@@H](C)O)C(C)C)[C@@H](C)CC
B8: Example 78 (peptide)
peptide: Y[Aib]EGTFISDYSI[αMeL]LDKK([AEEA-AEEA-γGlu-C20 diacid])HQ[Aib]DFVE[4Pal]LLAAGPSSGAPPPS-NH2
modifications: N-terminus assumed
SMILES: CC[C@H](C)[C@H](NC(=O)[C@H](Cc1ccccc1)NC(=O)[C@@H](NC(=O)CNC(=O)[C@H](CCC(=O)O)NC(=O)C(C)(C)NC(=O)[C@@H](N)Cc1ccc(O)cc1)[C@@H](C)O)C(=O)N[C@@H](CO)C(=O)N[C@@H](CC(=O)O)C(=O)N[C@@H](Cc1ccc(O)cc1)C(=O)N[C@@H](CO)C(=O)N[C@H](C(=O)N[C@@](C)(CC(C)C)C(=O)N[C@@H](CC(C)C)C(=O)N[C@@H](CC(=O)O)C(=O)N[C@@H](CCCCN)C(=O)N[C@@H](CCCCNC(=O)COCCOCCNC(=O)COCCOCCNC(=O)CC[C@H](NC(=O)CCCCCCCCCCCCCCCCCCC(=O)O)C(=O)O)C(=O)N[C@@H](Cc1c[nH]cn1)C(=O)N[C@@H](CCC(N)=O)C(=O)NC(C)(C)C(=O)N[C@@H](CC(=O)O)C(=O)N[C@@H](Cc1ccccc1)C(=O)N[C@H](C(=O)N[C@@H](CCC(=O)O)C(=O)N[C@@H](Cc1ccncc1)C(=O)N[C@@H](CC(C)C)C(=O)N[C@@H](CC(C)C)C(=O)N[C@@H](C)C(=O)N[C@@H](C)C(=O)NCC(=O)N1CCC[C@H]1C(=O)N[C@@H](CO)C(=O)N[C@@H](CO)C(=O)NCC(=O)N[C@@H](C)C(=O)N1CCC[C@H]1C(=O)N1CCC[C@H]1C(=O)N1CCC[C@H]1C(=O)N[C@@H](CO)C(N)=O)C(C)C)[C@@H](C)CC
B9: Example 79 (peptide)
peptide: Y[Aib]EGTFISDYSI[αMeL]LDKK([AEEA-AEEA-γGlu-C20 diacid])HQ[Aib]DFVE[4Pal]LLAQGPSSGAPPPS-NH2
modifications: N-terminus assumed
SMILES: CC[C@H](C)[C@H](NC(=O)[C@H](Cc1ccccc1)NC(=O)[C@@H](NC(=O)CNC(=O)[C@H](CCC(=O)O)NC(=O)C(C)(C)NC(=O)[C@@H](N)Cc1ccc(O)cc1)[C@@H](C)O)C(=O)N[C@@H](CO)C(=O)N[C@@H](CC(=O)O)C(=O)N[C@@H](Cc1ccc(O)cc1)C(=O)N[C@@H](CO)C(=O)N[C@H](C(=O)N[C@@](C)(CC(C)C)C(=O)N[C@@H](CC(C)C)C(=O)N[C@@H](CC(=O)O)C(=O)N[C@@H](CCCCN)C(=O)N[C@@H](CCCCNC(=O)COCCOCCNC(=O)COCCOCCNC(=O)CC[C@H](NC(=O)CCCCCCCCCCCCCCCCCCC(=O)O)C(=O)O)C(=O)N[C@@H](Cc1c[nH]cn1)C(=O)N[C@@H](CCC(N)=O)C(=O)NC(C)(C)C(=O)N[C@@H](CC(=O)O)C(=O)N[C@@H](Cc1ccccc1)C(=O)N[C@H](C(=O)N[C@@H](CCC(=O)O)C(=O)N[C@@H](Cc1ccncc1)C(=O)N[C@@H](CC(C)C)C(=O)N[C@@H](CC(C)C)C(=O)N[C@@H](C)C(=O)N[C@@H](CCC(N)=O)C(=O)NCC(=O)N1CCC[C@H]1C(=O)N[C@@H](CO)C(=O)N[C@@H](CO)C(=O)NCC(=O)N[C@@H](C)C(=O)N1CCC[C@H]1C(=O)N1CCC[C@H]1C(=O)N1CCC[C@H]1C(=O)N[C@@H](CO)C(N)=O)C(C)C)[C@@H](C)CC

human glucagon receptor, sequence (P47871 26-477): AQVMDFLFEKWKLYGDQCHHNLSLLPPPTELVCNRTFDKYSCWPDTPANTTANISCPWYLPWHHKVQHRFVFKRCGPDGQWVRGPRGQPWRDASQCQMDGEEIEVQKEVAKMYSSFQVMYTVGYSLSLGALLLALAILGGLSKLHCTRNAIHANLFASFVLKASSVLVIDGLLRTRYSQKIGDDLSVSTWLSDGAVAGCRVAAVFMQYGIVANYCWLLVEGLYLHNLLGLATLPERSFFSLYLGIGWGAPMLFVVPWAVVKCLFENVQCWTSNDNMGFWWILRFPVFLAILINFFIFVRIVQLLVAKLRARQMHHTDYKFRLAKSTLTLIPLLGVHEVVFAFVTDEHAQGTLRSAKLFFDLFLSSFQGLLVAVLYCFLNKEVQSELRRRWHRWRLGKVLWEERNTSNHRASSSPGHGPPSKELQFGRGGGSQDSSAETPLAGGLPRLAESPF

The first experiment has as its target human glucagon receptor (human, UniProt P47871 26-477). Kind of experiment: cell-based or functional assay.
On to B1, for which the “hGcgR cAMP Rel EC50” value was > 5 µM.
On to B2, for which the “hGcgR cAMP Rel EC50” value amounted to 0.627 µM.
Still for that read-out and setting: in the case of B3 it was 2.66 µM.
For the molecule B4, the “hGcgR cAMP Rel EC50” value was 1.2 µM.
On the same count and under the same terms, in the case of B5 it was 2.17 µM.
On the same count and under the same terms, next, B6: > 5 µM.
The same measure, in the same setting: next, B7: > 5 µM.
On to B8, for which the “hGcgR cAMP Rel EC50” value was 3 µM.
Still for that read-out and setting: next, B9: > 5 µM.

Another experiment addresses T1, human glucose-dependent insulinotropic peptide receptor (human, UniProt P48546 22-466).
T1 sequence (looked up): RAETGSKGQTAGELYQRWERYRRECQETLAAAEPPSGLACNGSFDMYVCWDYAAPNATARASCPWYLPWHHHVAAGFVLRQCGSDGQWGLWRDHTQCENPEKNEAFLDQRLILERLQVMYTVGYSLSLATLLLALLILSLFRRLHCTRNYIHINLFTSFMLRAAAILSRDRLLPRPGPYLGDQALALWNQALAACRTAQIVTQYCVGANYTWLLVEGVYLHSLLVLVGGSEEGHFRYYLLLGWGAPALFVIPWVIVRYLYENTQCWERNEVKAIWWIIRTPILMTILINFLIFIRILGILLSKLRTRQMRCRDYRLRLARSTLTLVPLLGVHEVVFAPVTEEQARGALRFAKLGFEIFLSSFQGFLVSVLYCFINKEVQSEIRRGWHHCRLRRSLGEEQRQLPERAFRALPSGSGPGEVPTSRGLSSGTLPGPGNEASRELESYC
Kind of experiment: cell-based or functional assay.
Take B1: the “hGIPR cAMP Rel EC50” value turned out to be 77.7 pM.
The same measure, in the same setting: next, B2: 16.7 pM; B3: 26.5 pM; B4: 15.4 pM.
On the same count and under the same terms, in the case of B5 it was 18.2 pM; in that of B6, 15.1 pM; in that of B7, 18.2 pM.
Take B8: the “hGIPR cAMP Rel EC50” value is 12.5 pM.
The same measure, in the same setting: next, B9: 31.6 pM.

For the next experiment, the target named is human GLP-1 receptor (human, UniProt P43220 24-463). Kind of experiment: cell-based or functional assay.
Regarding B1, the “hGLP1R cAMP Rel EC50” value was > 5 µM.
Still for that read-out and setting: next, B2: > 5 µM; B3: > 5 µM.
As to B4, the “hGLP1R cAMP Rel EC50” value was > 5 µM.
Still for that read-out and setting: next, B5: > 5 µM; B6: > 5 µM.
Turning to B7, the “hGLP1R cAMP Rel EC50” value was > 5 µM.
Still for that read-out and setting: in the case of B8 it was > 5 µM; in that of B9, > 5 µM.
